Measurements reported in patent US20170327561A1, “Anti-Angiogenic Properties of Collagen V Derived Fragments” (Ecole Normale Superieure de Lyon, priority 2014, published 2017).
Changes are numbered by the printed parent chain. Entries after “also recorded” stand apart in the source; their conditions may differ.

B1: HEPV: 12 kDa recombinant fragment of the collagen V pro-α1 chain, residues Ile824 to Pro950, SEQ ID NO. 1, binds heparin (protein, listed as Homo sapiens)
chain: IKGDRGEIGPPGPRGEDGPEGPKGRGGPNGDPGPLGPPGEKGKLGVPGLPGYPGRQGPKGSIGFPGFPGANGEKGGRGTPGKPGPRGQRGPTGPRGERGPRGITGKPGPKGNSGGDGPAGPPGERGP
modifications: HEPV
B2: ΔHBS-HEPV: non-functional HEPV mutant, SEQ ID NO. 4, Lys905, Arg909 and Arg912 replaced with alanines; negative control (protein)
chain: B1 chain with K82A, R86A, R89A
modifications: Synthetic Mutant of HEPV
notes: 4, Lys905, Arg909 and Arg912 replaced with alanines; negative control

Experiments:
[1] = Heparin-Sepharose affinity chromatography (NaCl gradient elution); assay type: binding; conditions: linear NaCl gradient 0-500 mM, Tris-HCl pH 7.4
Method: Heparin-Sepharose affinity columns (HiTrap Heparin, Amersham) were equilibrated in 50 mM Tris-HCl (pH 7.4). Protein samples were loaded onto a column, and a programmed linear gradient of 0-500 mM NaCl, 1M Tris-HCl (pH 7.4) was applied at a flow rate of 0.5 ml/min, confirmed by continuous conductivity measurement. Fractions (1 ml) were collected, and the elution profile of protein samples was determined by monitoring the absorbance at 214 nm. To accurately compare elution positions of the mutant, its elution with NaCl gradient was achieved versus a standard HEPV elution.
The affinity of both peptides for heparin is compared, on a heparin-sepharose column, determined with the necessary quantity of NaCl to elute the peptides.

[2] = tested on: human dermal microvascular endothelial cells (HDMEC); assay: Quantitative real-time RT-PCR of collagen genes in HEPV-treated endothelial cells; assay type: cell-based; conditions: HDMEC treated with HEPV for 4, 12 and 24 hours; relative to untreated controls, normalized to L30
Method: Expression of COL14A1 and COL18A1 mRNA in human dermal microvascular endothelial cells (HDMEC) treated with HEPV for 4, 12 and 24 hours, analyzed by real-time PCR. Values are normalized to the house keeping gene L30. Quantification is expressed relative to controls (cells cultivated in the same conditions without HEPV). Values are mean±SEM (n=3).
Total RNA was isolated from 8×10^6 cells by phenol-chloroform-isopropanol extraction (Trizol Reagent, Invitrogen). A reverse transcriptase reaction was performed on 1 μg of RNA using M-MLV reverse transcriptase (Promega). Quantitative PCRs were performed using SYBR Green Supermix (Biorad) and specific primers using a I-Cycler Optical System (Biorad). The following primers were used: […]
L30 was selected as housekeeping gene and used for normalization. Relative transcript abundances were determined as well known by the person skilled in the art. Relative gene expression was determined using the 2^−ΔΔC^T method. Student's t-tests were used to determine statistical significance (n=4).
A transcriptomic analysis has been performed, in order to identify the HEPV-regulated genes. Endothelial HDMEC cells have been treated with HEPV or not, for 4, 12 and 24 hours.

[3] = tested on: FGF-2-induced ERK1/2 and Akt phosphorylation in HUVEC; assay: Phosphorylation assay (Western blot) after FGF-2 stimulation; assay type: cell-based; conditions: peptide 8 μg/mL 24 h, FGF-2 50 ng/mL
Method: (§1) HUVEC were seeded at 2.10^5 cells/wells in ECGM2 in 6-well plates. The cells were treated with HEPV or ΔHBS-HEPV (8 μg/mL) during 24 h in serum free medium and then stimulated with FGF-2 or VEGF (50 ng/mL) for 5 or 20 minutes at 37° C. Cells were then washed twice with cold PBS and scraped and lysed at 4° C. in lysis buffer 1% NP-40 (150 mM NaCl, 50 mM Hepes pH 7.4, 5 mM EDTA, 10% glycerol, 1% NP-40, complete protease inhibitor cocktail (Roche), 1 mM Na3VO4). After centrifugation (13 000 g, 15 min, 4° C.), soluble proteins were collected. Protein amount was determined by BCA protein assay (Pierce) and equal amounts of proteins (10 μg) were loaded on SDS-PAGE and transfer on PVDF membrane at 100 V during 1 h. The blots were blocked with 5% BSA in TBS-T buffer (20 αmM Tris-HCl pH 7.4 and 0.05% Tween 20) and incubated with primary antibodies in TBST containing 5% bovine serum albumin, overnight at 4° C. Immunoreactivity was detected by sequential incubation with horseradish peroxidase-conjugated secondary antibodies purchased and ECL detection reagents purchased from Biorad. The antibodies used for phospho-protein detection were the followings: anti-AKT, anti-phospho-Akt (Ser473), anti-ERK1/2 and anti-phospho-ERK1/2 (Thr202/Tyr204, Thr185/Tyr187) (all from Cell Signaling Technology).
(§2) The aim of the experiments presented in FIG. 4 was to determine if, after incubation of endothelial cells with the peptide HEPV, the response to FGF-2 was affected by the presence of this peptide. The measured response to FGF-2 is the level of phosphorylation of proteins ERK 1/2 and Akt, involved in the signalization pathway of FGF-2 and VEGF, as determined with specific antibodies.
Endothelial cells HUVEC have been treated during 24 hours with HEPV or the control peptide ΔHBS-HEPV, and have then been stimulated with FGF-2 (FIG. 4A) or VEGF (50 ng/ml) (FIG. 4B).

[4] = tested on: VEGF-induced ERK1/2 phosphorylation in HUVEC; assay: Phosphorylation assay (Western blot) after VEGF stimulation; assay type: cell-based; conditions: peptide 8 μg/mL 24 h, VEGF 50 ng/ml
Method: as §1, with “The blots were blocked with 5% BSA in TBS-T buffer (20 αmM Tris-HCl pH 7.4 and 0.05% Tween 20) and incubated with primary antibodies in TBST containing 5% bovine serum albumin, overnight at 4° C.” left out, “The antibodies used for phospho-protein detection were the followings: anti-AKT, anti-phospho-Akt (Ser473), anti-ERK1/2 and anti-phospho-ERK1/2 (Thr202/Tyr204, Thr185/Tyr187) (all from Cell Signaling Technology).” left out
as §2, with “antibodies. […]” for “antibodies.”

[5] = Organ distribution of the peptide after injection into the blood system; assay type: in vivo; conditions: mouse
[6] = tested on: FGF-2 induced angiogenesis; assay: Hemoglobin measurement in implanted FGF-2 sponges; assay type: in vivo, nude mice; conditions: 20 μg peptide first day then every two days, after 7 days of treatment
From the text: (B) Formation of new blood vessels in nude mice implanted with a sponge impregnated with FGF-2 or PBS. After repeated treatments with peptides HEPV or HEPV-ΔHBS, the sponges are extracted and the presence of hemoglobin quantified. The presence of hemoglobin reflects the blood vessels content, as documented by the photos.
Disc Cellspon cellulose sponges (thickness 2 mm, diameter 10 mm; Cellomeda, Turku, Finland) were implanted under the skin of the mice. Prior to implantation, the sponges were hydrated with 50 μl of either PBS (negative control) or FGF-2 (200 ng/50 μl; positive angiogenic control) (recombinant FGF-2, Eurobio-AbCys, Les Ulis, France). […]
After implantation of the PBS or FGF-2 treated sponges and treatment with 50 μl containing 50 μg HEP peptides at DO, 2, 3 and 5, the hemoglobin content was measured at D8. […] Each sponge was homogenized in 1 ml of RIPA lysis buffer containing a cocktail of protease inhibitors, centrifuged at 200 g, and the supernatants were quantified. The extent of vascularization of the sponge implants was assessed by measuring the concentration of hemoglobin with Drabkin's reagent (Sigma-Aldrich, Saint-Quentin Fallavier, France). […]
20 μg of HEPV or ΔHBS-HEPV have been injected simultaneously with PBS or FGF-2, at the first day and then every two days. After 7 days of treatment, sponges are taken out and analyzed. […]

[7] = tested on: murine TS/Apc breast cancer cells implanted subcutaneously; assay: Antitumor activity, tumor growth by caliper; assay type: in vivo, nude mice; conditions: 50 μg peptide every 2 days, versus HEPV-ΔHBS control; from day 20 of treatment
Method: (A) Murine Tsa/Pc breast cancer cells implanted subcutaneously are treated from day 5 repeatedly by peritumoral injections of 50 μl PBS containing 50 μg control (HEPV-ΔHBS) of HEPV peptides every 2 days. […] Tumors sections were immunostained using an anti-CD31 antibody that detects blood vessels (B) or an anti-Ki67 antibody that stains proliferating cells (C).
TS/Apc-pGL3 is a cell line derived from the original adenocarcinoma TS/Apc mouse cell line stably transfected with the pGL3-luciferase reporter gene (Promega, Charbonnieres, France). Cells were cultured at 37° C. in a humidified 5% CO2 incubator in RPMI 1640 supplemented with 1% glutamine, 10% fetal bovine serum, 50 units/ml penicillin, 50 μg/ml streptomycin, β-mercaptoethanol (25 μM) and 700 μg/ml Geneticin® (G418 sulphate; Gibco, Paisley, UK).
Twenty female athymic Swiss nude mice, purchased from Janvier (Le Genest Saint Isle, France) at 6-8 weeks of age were used and maintained under specific pathogen-free conditions. Mice received a subcutaneous (s.c.) injection of 10^6 TS/Apc-pGL3 cells suspended in 200 μl of PBS into the right flank usually results in formation of 6-8 mm-diameter tumors after one week. […] Tumor growth was evaluated using calipers.
Tumors have been induced by implantation of murine breast cancer cells (TSA) in nude mice. […] The volume of the tumors is measured with a caliper.

[8] = tested on: murine TS/Apc breast cancer tumors; assay: Immunohistology of tumor sections (anti-CD31, anti-Ki67); assay type: in vivo, nude mice
Method: At day 20, 3 mice/group were sacrificed for immunohistology studies. At day 35 days after implantation all remaining tumors were extracted.
Frozen sections (8 μm) from tumors were fixed in acetone for 10 min. Sections were then washed 3×5 min in Tris-buffered saline containing 0.1% Tween 20, and endogenous peroxidases were blocked with 0.1% H2O2 in methanol for 20 min. Sections were then sequentially incubated for 1 h with a rat monoclonal anti-CD31 antibody (MEC13.3;1:500; Pharmingen) or rabbit anti-Ki67 (1:100; AbCAM) and for 1 h with goat anti-rat antibody for CD31 (1:500; Cell-signaling) or goat anti-rabbit for Ki67 (1:200; Dako). […] Sections were counterstained with hematoxylin and all were mounted.
Staining against the endothelial marker CD31 by means of immunohistochemistry was followed by observation under low magnification scope (100×), five field of view of each tumor (5 tumors by condition). Then, vessels quantity were measured in each of these areas utilizing ImageJ software (http://rsbweb.nih.gov/ij). All counts were performed in a blinded manner.
After immunohistochemical staining against Ki67, slides were observed under high magnification scope (200×). Six to nine areas by tumor were photographed. These photographs were analyzed by the plugging ImmunoRatio in ImageJ software (http://rsbweb.nih.gov/ij). The Ki67 index was evaluated in a blinded manner and calculated as Ki67-positive cells divided by all tumor cells in one field.
Mice from each group are sacrificed at day 20 and day 33 to check the formation of novel blood vessels. The account of the blood vessels is realized by observations of the tumors samples.
The proliferation of tumor cells with an antibody anti-Ki67 is also realized on these tumor samples.

Row | Molecule | NaCl concentration needed to elute the peptide from heparin-sepharose [1] [M] | Expression of COL4A1 mRNA [2] | Expression of COL18A1 mRNA [2] | Phosphorylation of Akt after stimulation with FGF-2 [3] | Phosphorylation of ERK1/2 after stimulation with FGF-2 [3] | Phosphorylation of ERK1/2 after stimulation with VEGF [4] | Toxicity (concluded from absence of liver accumulation) [5] | Accumulation in various organs ([5]; results not shown) | Accumulation into the liver ([5]; results not shown) | Decrease of hemoglobin level in sponges, in comparison with mice treated with ΔHBS-HEPV [6] [times] | Tumor growth (tumor volume) [7] | Blood vessels density in tumors (anti-CD31), compared to ΔHBS-HEPV-treated mice ([8]; day 20) | Tumor cells proliferation (anti-Ki67) ([8]; day 20) | Blood vessels density in tumors (anti-CD31), compared to ΔHBS-HEPV-treated mice ([8]; day 33) | Tumor cells proliferation (anti-Ki67) ([8]; day 33)
1 | B1 | 0.35 | up-regulated | up-regulated | inhibits | inhibited | present a phosphorylation of ERK1/2 | non-toxic | does not accumulate non-specifically in various organs, except in kidney and bladder | does not accumulate into the liver | 2.5 | slows down; also recorded: significantly (p<0.05) slowed down | significant decrease | significant decrease | less significant | the proliferation strikes back
2 | B2 | 0.2 | – | – | – | inefficient | – | – | – | – | – | – | – | – | – | –
